The results in this text go back to US20220195012A1.

The target in one experiment is CP C3-convertase (C4b2a) (UniProt P0C0L4). In words: cell-based or functional assay.
The target of a further experiment is AP C3-convertase (C3bBb) (UniProt P01024). Nature of the experiment: cell-based or functional assay.
Sequence of AP C3-convertase (C3bBb) (P01024 23-667 limits assumed, chain 1 of 3): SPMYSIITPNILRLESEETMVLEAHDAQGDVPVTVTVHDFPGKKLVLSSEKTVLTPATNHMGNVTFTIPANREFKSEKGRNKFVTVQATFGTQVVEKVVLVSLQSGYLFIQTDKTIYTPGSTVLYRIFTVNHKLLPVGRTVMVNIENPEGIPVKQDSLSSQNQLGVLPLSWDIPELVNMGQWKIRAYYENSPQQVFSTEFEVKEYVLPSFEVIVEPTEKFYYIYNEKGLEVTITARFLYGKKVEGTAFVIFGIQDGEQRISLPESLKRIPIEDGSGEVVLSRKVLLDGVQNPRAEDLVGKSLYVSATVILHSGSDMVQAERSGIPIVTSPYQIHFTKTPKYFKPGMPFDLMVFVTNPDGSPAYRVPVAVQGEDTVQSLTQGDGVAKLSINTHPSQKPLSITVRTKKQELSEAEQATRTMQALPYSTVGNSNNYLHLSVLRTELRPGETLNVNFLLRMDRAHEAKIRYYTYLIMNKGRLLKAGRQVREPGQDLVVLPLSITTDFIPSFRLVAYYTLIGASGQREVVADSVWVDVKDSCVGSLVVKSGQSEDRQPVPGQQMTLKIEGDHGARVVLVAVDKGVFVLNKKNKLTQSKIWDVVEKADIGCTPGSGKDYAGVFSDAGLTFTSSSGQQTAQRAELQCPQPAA
Sequence of AP C3-convertase (C3bBb) (P01024 749-1663 limits assumed, chain 2 of 3): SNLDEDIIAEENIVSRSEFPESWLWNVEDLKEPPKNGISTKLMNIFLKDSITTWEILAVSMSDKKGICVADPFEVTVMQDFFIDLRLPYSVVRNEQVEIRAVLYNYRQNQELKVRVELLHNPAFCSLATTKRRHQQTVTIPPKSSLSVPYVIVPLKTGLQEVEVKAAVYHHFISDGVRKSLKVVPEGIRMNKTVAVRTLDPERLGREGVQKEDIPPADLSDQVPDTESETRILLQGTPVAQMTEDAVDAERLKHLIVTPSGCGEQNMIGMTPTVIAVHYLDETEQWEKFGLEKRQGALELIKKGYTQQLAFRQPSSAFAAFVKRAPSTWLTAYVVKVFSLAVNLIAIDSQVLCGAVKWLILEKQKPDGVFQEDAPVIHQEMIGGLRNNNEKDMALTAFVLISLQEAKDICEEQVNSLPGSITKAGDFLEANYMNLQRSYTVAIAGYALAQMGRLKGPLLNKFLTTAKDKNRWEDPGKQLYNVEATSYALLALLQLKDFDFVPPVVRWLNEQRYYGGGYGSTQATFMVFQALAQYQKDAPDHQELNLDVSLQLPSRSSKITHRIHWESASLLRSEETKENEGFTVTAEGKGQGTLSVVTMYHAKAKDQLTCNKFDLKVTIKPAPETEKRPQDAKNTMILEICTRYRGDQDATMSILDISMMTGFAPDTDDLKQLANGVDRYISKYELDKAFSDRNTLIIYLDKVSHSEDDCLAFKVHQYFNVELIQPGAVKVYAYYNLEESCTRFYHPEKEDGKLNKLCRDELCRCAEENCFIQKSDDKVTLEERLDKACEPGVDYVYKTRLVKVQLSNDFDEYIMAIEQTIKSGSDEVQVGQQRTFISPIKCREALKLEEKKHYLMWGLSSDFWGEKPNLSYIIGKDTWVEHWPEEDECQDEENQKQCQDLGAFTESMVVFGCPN
Sequence of AP C3-convertase (C3bBb) (P00751 260-764 limits assumed, chain 3 of 3, further chain): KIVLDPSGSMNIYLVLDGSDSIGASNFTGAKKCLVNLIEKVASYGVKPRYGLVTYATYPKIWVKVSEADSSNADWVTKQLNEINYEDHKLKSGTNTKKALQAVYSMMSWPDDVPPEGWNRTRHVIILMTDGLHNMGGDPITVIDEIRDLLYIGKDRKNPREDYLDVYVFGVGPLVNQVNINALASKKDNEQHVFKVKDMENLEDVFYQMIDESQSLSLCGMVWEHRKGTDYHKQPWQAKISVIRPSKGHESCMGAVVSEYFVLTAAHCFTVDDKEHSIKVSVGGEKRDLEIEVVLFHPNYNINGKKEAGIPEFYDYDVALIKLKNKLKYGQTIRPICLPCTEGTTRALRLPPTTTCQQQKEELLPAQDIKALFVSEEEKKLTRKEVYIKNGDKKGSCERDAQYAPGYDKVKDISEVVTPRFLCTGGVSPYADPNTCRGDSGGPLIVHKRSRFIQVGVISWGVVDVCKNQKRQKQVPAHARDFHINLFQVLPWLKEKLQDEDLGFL

Sequence of CP C3-convertase (C4b2a) (P0C0L4 757-1446 limits assumed, chain 1 of 4): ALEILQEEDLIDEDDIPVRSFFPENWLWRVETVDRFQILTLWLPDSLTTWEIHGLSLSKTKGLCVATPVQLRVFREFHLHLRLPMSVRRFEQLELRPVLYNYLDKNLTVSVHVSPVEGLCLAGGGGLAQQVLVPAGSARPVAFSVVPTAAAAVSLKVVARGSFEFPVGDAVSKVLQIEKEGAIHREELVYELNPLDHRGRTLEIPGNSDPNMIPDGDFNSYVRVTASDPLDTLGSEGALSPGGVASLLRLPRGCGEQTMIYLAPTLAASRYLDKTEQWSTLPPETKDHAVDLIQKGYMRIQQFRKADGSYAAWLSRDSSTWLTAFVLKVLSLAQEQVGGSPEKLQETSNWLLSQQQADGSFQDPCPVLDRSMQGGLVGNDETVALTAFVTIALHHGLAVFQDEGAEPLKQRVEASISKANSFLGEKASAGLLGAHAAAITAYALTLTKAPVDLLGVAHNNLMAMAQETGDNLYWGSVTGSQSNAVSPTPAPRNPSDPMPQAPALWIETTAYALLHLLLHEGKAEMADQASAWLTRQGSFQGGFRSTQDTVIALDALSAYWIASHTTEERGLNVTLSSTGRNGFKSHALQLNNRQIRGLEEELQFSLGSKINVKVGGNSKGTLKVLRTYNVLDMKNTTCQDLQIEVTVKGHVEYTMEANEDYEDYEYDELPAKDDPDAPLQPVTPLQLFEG
Sequence of CP C3-convertase (C4b2a) (P0C0L4 20-675 limits assumed, chain 2 of 4): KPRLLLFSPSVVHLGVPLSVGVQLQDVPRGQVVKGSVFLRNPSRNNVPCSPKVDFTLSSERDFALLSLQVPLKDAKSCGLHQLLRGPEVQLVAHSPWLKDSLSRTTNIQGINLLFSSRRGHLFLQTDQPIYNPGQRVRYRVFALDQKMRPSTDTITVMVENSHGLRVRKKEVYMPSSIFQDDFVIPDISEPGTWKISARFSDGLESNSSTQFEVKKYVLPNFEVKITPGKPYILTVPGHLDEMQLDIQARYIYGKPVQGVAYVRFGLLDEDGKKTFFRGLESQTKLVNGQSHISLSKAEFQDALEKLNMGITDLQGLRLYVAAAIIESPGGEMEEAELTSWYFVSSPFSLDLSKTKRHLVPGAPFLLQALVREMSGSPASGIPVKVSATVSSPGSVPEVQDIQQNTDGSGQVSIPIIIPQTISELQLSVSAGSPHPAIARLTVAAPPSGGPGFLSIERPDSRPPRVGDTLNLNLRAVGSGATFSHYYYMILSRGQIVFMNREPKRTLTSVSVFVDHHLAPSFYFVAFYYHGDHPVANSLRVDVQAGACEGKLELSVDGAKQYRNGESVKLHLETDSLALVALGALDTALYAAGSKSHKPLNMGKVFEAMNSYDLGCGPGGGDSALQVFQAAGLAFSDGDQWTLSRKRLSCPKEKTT
Sequence of CP C3-convertase (C4b2a) (P0C0L4 1454-1744 limits assumed, chain 3 of 4): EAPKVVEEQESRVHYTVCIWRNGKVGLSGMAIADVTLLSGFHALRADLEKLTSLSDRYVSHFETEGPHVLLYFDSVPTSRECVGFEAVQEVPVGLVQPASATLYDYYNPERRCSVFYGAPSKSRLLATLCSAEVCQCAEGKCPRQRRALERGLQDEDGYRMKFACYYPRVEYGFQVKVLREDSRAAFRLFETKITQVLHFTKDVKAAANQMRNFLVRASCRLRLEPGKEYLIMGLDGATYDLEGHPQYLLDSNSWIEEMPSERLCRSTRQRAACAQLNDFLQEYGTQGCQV
Sequence of CP C3-convertase (C4b2a) (P06681 244-752 limits assumed, chain 4 of 4, further chain): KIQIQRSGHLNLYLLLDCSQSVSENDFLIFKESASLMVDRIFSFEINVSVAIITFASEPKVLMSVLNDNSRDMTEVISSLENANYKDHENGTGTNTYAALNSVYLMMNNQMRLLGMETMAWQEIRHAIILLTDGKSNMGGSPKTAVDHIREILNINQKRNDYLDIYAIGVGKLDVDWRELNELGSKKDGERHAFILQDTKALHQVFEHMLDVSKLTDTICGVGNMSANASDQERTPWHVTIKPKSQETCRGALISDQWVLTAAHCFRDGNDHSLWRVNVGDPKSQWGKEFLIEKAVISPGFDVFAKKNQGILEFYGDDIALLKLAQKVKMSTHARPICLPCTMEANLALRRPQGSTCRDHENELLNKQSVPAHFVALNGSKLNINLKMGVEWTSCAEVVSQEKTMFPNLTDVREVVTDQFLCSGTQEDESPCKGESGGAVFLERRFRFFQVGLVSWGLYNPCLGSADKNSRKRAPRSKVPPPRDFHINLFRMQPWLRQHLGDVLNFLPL
Sequence of D2D3 (DAF deletion mutant D2-D3) (P08174 98-224 limits assumed, stated change not applied): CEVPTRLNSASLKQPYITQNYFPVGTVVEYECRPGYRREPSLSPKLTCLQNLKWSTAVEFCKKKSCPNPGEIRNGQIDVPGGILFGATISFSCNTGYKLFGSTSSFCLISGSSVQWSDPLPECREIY

D2D3D4M4 (DAF-MCP chimera): in the experiment with CP C3-convertase (C4b2a), the CP-DAA IC50 came to 5.7 µM and the Relative CP-DAA was determined as 0.4. Moreover, in the experiment with AP C3-convertase (C3bBb), the AP-DAA IC50 came to 0.0056 µM; the AP-DAA, fold reduction compared to DAF is 10 fold; the Relative AP-DAA was 0.4.

In the experiment with CP C3-convertase (C4b2a), “D2D3 (DAF deletion mutant D2-D3) (from UniProt P08174 98-224)” showed a CP-DAA IC50 of 10.9 µM and a Relative CP-DAA of under 0.3. In the experiment with AP C3-convertase (C3bBb), this substance showed an AP-DAA IC50 of over 0.01 µM and a Relative AP-DAA of under 0.2.
